Test results reported in patent US20160046724A1 (Novartis, published 2016).

B1: BCMA-11 CAR (other)
chain: QVQLVQSGGGLVKPGGSLRLSCAASGFTFSDYYMSWIRQAPGKGLEWVSYISSSGNTIYYADSVKGRFTISRDNAKNSLYLQMNSLRAEDTAVYYCARSTMVREDYWGQGTLVTVSSASGGGGSGGRASGGGGSDIVLTQSPLSLPVTLGQPASISCKSSESLVHNSGKTYLNWFHQRPGQSPRRLIYEVSNRDSGVPDRFTGSGSGTDFTLKISRVEAEDVGVYYCMQGTHWPGTFGQGTKLEIKTTTPAPRPPTPAPTIASQPLSLRPEACRPAAGGAVHTRGLDFACDIYIWAPLAGTCGVLLLSLVITLYCKRGRKKLLYIFKQPFMRPVQTTQEEDGCSCRFPEEEEGGCELRVKFSRSADAPAYKQGQNQLYNELNLGRREEYDVLDKRRGRDPEMGGKPRRKNPQEGLYNELQKDKMAEAYSEIGMKGERRRGKGHDGLYQGLSTATKDTYDALHMQALPPR
notes: also called 139110 Full CAR; UG65-93FB
B2: BCMA-12 CAR (other)
chain: EVQLLESGGGLVQPGGSLRLSCAVSGFALSNHGMSWVRRAPGKGLEWVSGIVYSGSTYYAASVKGRFTISRDNSRNTLYLQMNSLRPEDTAIYYCSAHGGESDVWGQGTTVTVSSASGGGGSGGRASGGGGSDIVMTQTPLSLSVTPGQPASISCKSSQSLLRNDGKTPLYWYLQKAGQPPQLLIYEVSNRFSGVPDRFSGSGSGTDFTLKISRVEAEDVGAYYCMQNIQFPSFGGGTKLEIKTTTPAPRPPTPAPTIASQPLSLRPEACRPAAGGAVHTRGLDFACDIYIWAPLAGTCGVLLLSLVITLYCKRGRKKLLYIFKQPFMRPVQTTQEEDGCSCRFPEEEEGGCELRVKFSRSADAPAYKQGQNQLYNELNLGRREEYDVLDKRRGRDPEMGGKPRRKNPQEGLYNELQKDKMAEAYSEIGMKGERRRGKGHDGLYQGLSTATKDTYDALHMQALPPR
notes: also called 139111 Full CAR; HU13-58ZB
B3: BCMA-13 CAR (other)
chain: QVQLVESGGGLVQPGGSLRLSCAVSGFALSNHGMSWVRRAPGKGLEWVSGIVYSGSTYYAASVKGRFTISRDNSRNTLYLQMNSLRPEDTAIYYCSAHGGESDVWGQGTTVTVSSASGGGGSGGRASGGGGSDIRLTQSPSPLSASVGDRVTITCQASEDINKFLNWYHQTPGKAPKLLIYDASTLQTGVPSRFSGSGSGTDFTLTINSLQPEDIGTYYCQQYESLPLTFGGGTKVEIKTTTPAPRPPTPAPTIASQPLSLRPEACRPAAGGAVHTRGLDFACDIYIWAPLAGTCGVLLLSLVITLYCKRGRKKLLYIFKQPFMRPVQTTQEEDGCSCRFPEEEEGGCELRVKFSRSADAPAYKQGQNQLYNELNLGRREEYDVLDKRRGRDPEMGGKPRRKNPQEGLYNELQKDKMAEAYSEIGMKGERRRGKGHDGLYQGLSTATKDTYDALHMQALPPR
notes: also called 139112 Full CAR; KG66-98AB
B4: BCMA-4 CAR (other)
chain: QVQLVESGGGLVQPGRSLRLSCAASGFTFSNYAMSWVRQAPGKGLGWVSGISRSGENTYYADSVKGRFTISRDNSKNTLYLQMNSLRDEDTAVYYCARSPAHYYGGMDVWGQGTTVTVSSASGGGGSGGRASGGGGSDIVLTQSPGTLSLSPGERATLSCRASQSISSSFLAWYQQKPGQAPRLLIYGASRRATGIPDRFSGSGSGTDFTLTISRLEPEDSAVYYCQQYHSSPSWTFGQGTKLEIKTTTPAPRPPTPAPTIASQPLSLRPEACRPAAGGAVHTRGLDFACDIYIWAPLAGTCGVLLLSLVITLYCKRGRKKLLYIFKQPFMRPVQTTQEEDGCSCRFPEEEEGGCELRVKFSRSADAPAYKQGQNQLYNELNLGRREEYDVLDKRRGRDPEMGGKPRRKNPQEGLYNELQKDKMAEAYSEIGMKGERRRGKGHDGLYQGLSTATKDTYDALHMQALPPR
notes: also called 139103 Full CAR; JF32-78IB
B5: BCMA-7 CAR (other)
chain: EVQLVETGGGLVQPGGSLRLSCAVSGFALSNHGMSWVRRAPGKGLEWVSGIVYSGSTYYAASVKGRFTISRDNSRNTLYLQMNSLRPEDTAIYYCSAHGGESDVWGQGTTVTVSSASGGGGSGGRASGGGGSEIVMTQSPATLSVSPGERATLSCRASQSVSSKLAWYQQKPGQAPRLLMYGASIRATGIPDRFSGSGSGTEFTLTISSLEPEDFAVYYCQQYGSSSWTFGQGTKVEIKTTTPAPRPPTPAPTIASQPLSLRPEACRPAAGGAVHTRGLDFACDIYIWAPLAGTCGVLLLSLVITLYCKRGRKKLLYIFKQPFMRPVQTTQEEDGCSCRFPEEEEGGCELRVKFSRSADAPAYKQGQNQLYNELNLGRREEYDVLDKRRGRDPEMGGKPRRKNPQEGLYNELQKDKMAEAYSEIGMKGERRRGKGHDGLYQGLSTATKDTYDALHMQALPPR
notes: also called 139106 Full CAR; QR91-12ZA
B6: BCMA-14 CAR (other)
chain: EVQLVETGGGLVQPGGSLRLSCAVSGFALSNHGMSWVRRAPGKGLEWVSGIVYSGSTYYAASVKGRFTISRDNSRNTLYLQMNSLRPEDTAIYYCSAHGGESDVWGQGTTVTVSSASGGGGSGGRASGGGGSETTLTQSPATLSVSPGERATLSCRASQSVGSNLAWYQQKPGQGPRLLIYGASTRATGIPARFSGSGSGTEFTLTISSLQPEDFAVYYCQQYNDWLPVTFGQGTKVEIKTTTPAPRPPTPAPTIASQPLSLRPEACRPAAGGAVHTRGLDFACDIYIWAPLAGTCGVLLLSLVITLYCKRGRKKLLYIFKQPFMRPVQTTQEEDGCSCRFPEEEEGGCELRVKFSRSADAPAYKQGQNQLYNELNLGRREEYDVLDKRRGRDPEMGGKPRRKNPQEGLYNELQKDKMAEAYSEIGMKGERRRGKGHDGLYQGLSTATKDTYDALHMQALPPR
notes: also called 139113 Full CAR; HJ64-62PB
B7: BCMA-2 CAR (other)
chain: QVQLQESGGGLVQPGGSLRLSCAASGFTFSSDAMTWVRQAPGKGLEWVSVISGSGGTTYYADSVKGRFTISRDNSKNTLYLQMNSLRAEDTAVYYCAKLDSSGYYYARGPRYWGQGTLVTVSSASGGGGSGGRASGGGGSDIQLTQSPSSLSASVGDRVTITCRASQSISSYLNWYQQKPGKAPKLLIYGASTLASGVPARFSGSGSGTHFTLTINSLQSEDSATYYCQQSYKRASFGQGTKVEIKTTTPAPRPPTPAPTIASQPLSLRPEACRPAAGGAVHTRGLDFACDIYIWAPLAGTCGVLLLSLVITLYCKRGRKKLLYIFKQPFMRPVQTTQEEDGCSCRFPEEEEGGCELRVKFSRSADAPAYKQGQNQLYNELNLGRREEYDVLDKRRGRDPEMGGKPRRKNPQEGLYNELQKDKMAEAYSEIGMKGERRRGKGHDGLYQGLSTATKDTYDALHMQALPPR
notes: also called 139101 Full CAR; UR96-08PA
B8: BCMA-9 CAR (other)
chain: QVQLVESGGGLVKPGGSLRLSCAASGFTFSDYYMSWIRQAPGKGLEWVSYISSSGSTIYYADSVKGRFTISRDNAKNSLYLQMNSLRAEDTAVYYCARESGDGMDVWGQGTTVTVSSASGGGGSGGRASGGGGSDIQMTQSPSSLSASVGDRVTITCRASQSISSYLNWYQQKPGKAPKLLIYAASSLQSGVPSRFSGSGSGTDFTLTISSLQPEDFATYYCQQSYTLAFGQGTKVDIKTTTPAPRPPTPAPTIASQPLSLRPEACRPAAGGAVHTRGLDFACDIYIWAPLAGTCGVLLLSLVITLYCKRGRKKLLYIFKQPFMRPVQTTQEEDGCSCRFPEEEEGGCELRVKFSRSADAPAYKQGQNQLYNELNLGRREEYDVLDKRRGRDPEMGGKPRRKNPQEGLYNELQKDKMAEAYSEIGMKGERRRGKGHDGLYQGLSTATKDTYDALHMQALPPR
notes: also called 139108 Full CAR; OG62-93QB
B9: BCMA-1 CAR (other)
chain: QVQLVQSGAEVRKTGASVKVSCKASGYIFDNFGINWVRQAPGQGLEWMGWINPKNNNTNYAQKFQGRVTITADESTNTAYMEVSSLRSEDTAVYYCARGPYYYQSYMDVWGQGTMVTVSSASGGGGSGGRASGGGGSDIVMTQTPLSLPVTPGEPASISCRSSQSLLHSNGYNYLNWYLQKPGQSPQLLIYLGSKRASGVPDRFSGSGSGTDFTLHITRVGAEDVGVYYCMQALQTPYTFGQGTKLEIKTTTPAPRPPTPAPTIASQPLSLRPEACRPAAGGAVHTRGLDFACDIYIWAPLAGTCGVLLLSLVITLYCKRGRKKLLYIFKQPFMRPVQTTQEEDGCSCRFPEEEEGGCELRVKFSRSADAPAYKQGQNQLYNELNLGRREEYDVLDKRRGRDPEMGGKPRRKNPQEGLYNELQKDKMAEAYSEIGMKGERRRGKGHDGLYQGLSTATKDTYDALHMQALPPR
notes: also called 139100 Full CAR; ER95-03VA
B10: BCMA-5 CAR (other)
chain: EVQLLETGGGLVQPGGSLRLSCAVSGFALSNHGMSWVRRAPGKGLEWVSGIVYSGSTYYAASVKGRFTISRDNSRNTLYLQMNSLRPEDTAIYYCSAHGGESDVWGQGTTVTVSSASGGGGSGGRASGGGGSEIVLTQSPATLSVSPGESATLSCRASQSVSSNLAWYQQKPGQAPRLLIYGASTRASGIPDRFSGSGSGTDFTLTISSLQAEDVAVYYCQQYGSSLTFGGGTKVEIKTTTPAPRPPTPAPTIASQPLSLRPEACRPAAGGAVHTRGLDFACDIYIWAPLAGTCGVLLLSLVITLYCKRGRKKLLYIFKQPFMRPVQTTQEEDGCSCRFPEEEEGGCELRVKFSRSADAPAYKQGQNQLYNELNLGRREEYDVLDKRRGRDPEMGGKPRRKNPQEGLYNELQKDKMAEAYSEIGMKGERRRGKGHDGLYQGLSTATKDTYDALHMQALPPR
notes: also called 139104 Full CAR; AR99-08FA
B11: BCMA-3 CAR (other)
chain: QVQLVQSGAEVKKPGASVKVSCKASGYTFSNYGITWVRQAPGQGLEWMGWISAYNGNTNYAQKFQGRVTMTRNTSISTAYMELSSLRSEDTAVYYCARGPYYYYMDVWGKGTMVTVSSASGGGGSGGRASGGGGSEIVMTQSPLSLPVTPGEPASISCRSSQSLLYSNGYNYVDWYLQKPGQSPQLLIYLGSNRASGVPDRFSGSGSGTDFKLQISRVEAEDVGIYYCMQGRQFPYSFGQGTKVEIKTTTPAPRPPTPAPTIASQPLSLRPEACRPAAGGAVHTRGLDFACDIYIWAPLAGTCGVLLLSLVITLYCKRGRKKLLYIFKQPFMRPVQTTQEEDGCSCRFPEEEEGGCELRVKFSRSADAPAYKQGQNQLYNELNLGRREEYDVLDKRRGRDPEMGGKPRRKNPQEGLYNELQKDKMAEAYSEIGMKGERRRGKGHDGLYQGLSTATKDTYDALHMQALPPR
notes: Chimeric antigen receptor; 0.0 % CAR+ on JNL cells by BCMA-Fc detection; also called 139102 Full CAR; KR98-03KA

Target: T1, BCMA-Fc antigen (UniProt Q02223 5-51, limits assumed)
T1 construct: Bought reagent; also called BCMA fc fusion protein; recombinant BCMA-Fc; not shown: Fc region
T1 chain (looked up): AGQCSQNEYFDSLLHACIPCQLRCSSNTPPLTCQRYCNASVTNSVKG
Test: flow cytometry of CAR-transduced JNL cells stained with BCMA-Fc antigen
Method: Jurkat-NFAT-luciferase (JNL) cells transduced with BCMA CAR constructs were evaluated for activation in response to BCMA-expressing target cell lines. Small-scale viral supernatant samples were generated in HEK293T cells for transduction of JNL cells. On Day 3 following transduction, BCMA CAR-transduced JNL cells were incubated with target cells at an effector-to-target (E:T) ratio of 6:1. Target cell lines were: K562-BCMA (engineered to stably express BCMA), K562 (parental line), and BCMA positive multiple myeloma cell lines, NCI-H929 and RPMI 8226. JNL activation was measured using Bright-Glo substrate (Promega) on Day 4. CAR expression on transduced JNL was assessed on Day 7 with BCMA-Fc antigen and Biotin-Protein L reagent (Table 7).

| Binder | % CAR+ (BCMA-Fc detection) |
| --- | --- |
| B1 | 42.7% |
| B2 | 23.4% |
| B3 | 32.7% |
| B4 | 49.5% |
| B5 | 30.4% |
| B6 | 31.8% |
| B7 | 32% |
| B8 | 54.7% |
| B9 | 72.1% |
| B10 | 28.9% |
| B11 | 0% |
